Experimental data reported in paper PMC3355227.
Where no end group is shown, it is not given here. [ ]: non-standard residue; d: D form. The star is where a group is joined. pT = C[C@@H](OP(=O)(O)O)[C@H](N)C(=O)O; Butyl(4-Ph) = c1ccc(CCCC*)cc1

Assays:
[1] = target: Plk1 polo-box domain (PBD), purified protein of the fluorescence polarization assay; assay: fluorescence polarisation
HA-EGFP-Plk1, P53350 = assay: ELISA; conditions: remark: other sources report otherwise
HA-EGFP-Plk1, P53350, sequence (P53350 whole entry): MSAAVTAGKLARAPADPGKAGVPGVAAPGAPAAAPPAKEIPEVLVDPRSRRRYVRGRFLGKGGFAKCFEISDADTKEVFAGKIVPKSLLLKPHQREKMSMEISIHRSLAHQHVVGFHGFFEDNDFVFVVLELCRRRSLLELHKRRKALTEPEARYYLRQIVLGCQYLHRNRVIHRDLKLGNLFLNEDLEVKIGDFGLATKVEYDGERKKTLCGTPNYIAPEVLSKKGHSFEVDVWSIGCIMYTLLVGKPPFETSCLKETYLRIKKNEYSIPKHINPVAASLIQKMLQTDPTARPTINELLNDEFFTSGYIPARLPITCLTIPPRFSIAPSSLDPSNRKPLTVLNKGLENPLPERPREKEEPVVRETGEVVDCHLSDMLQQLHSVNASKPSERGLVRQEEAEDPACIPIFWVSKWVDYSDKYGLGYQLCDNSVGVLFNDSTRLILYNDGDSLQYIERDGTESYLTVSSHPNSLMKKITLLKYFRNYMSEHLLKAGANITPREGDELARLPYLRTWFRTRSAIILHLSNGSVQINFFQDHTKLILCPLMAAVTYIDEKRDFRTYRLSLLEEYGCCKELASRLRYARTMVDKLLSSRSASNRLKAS

Binder | IC50 [1] [nM] | IC50 (HA-EGFP-Plk1, P53350) [nM]
P(Butyl(4-Ph))LHA[pT] [peptide 7(S4A)] | 4150 | 43000
P(Butyl(4-Ph))LHS[pT] [peptide 8] | 38 | –
GPMQS[pT]PLNG-OH (N-terminus assumed; SMILES CSCC[C@H](NC(=O)[C@@H]1CCCN1C(=O)CN)C(=O)N[C@@H](CCC(N)=O)C(=O)N[C@@H](CO)C(=O)N[C@H](C(=O)N1CCC[C@H]1C(=O)N[C@@H](CC(C)C)C(=O)N[C@@H](CC(N)=O)C(=O)NCC(=O)O)[C@@H](C)OP(=O)(O)O) [peptide GPMQSpTPLNG-OH (9)] | 1120 | –
